Values of other authors, collected in paper PMC6236854 (Molecular Imaging, 2018).
Ends that are not written are not given here.

What was measured:
GHSR1a = details: read-out: half-maximal inhibitory concentration (IC50), binding affinity
[1] = not given; remark: listed apart in the source

IC50 (GHSR1a): 7.63 nM
Substance: ghrelin (GSSFLSPEHQRVQQRKESKKPPAKLQPR; ends and bridges not checked; UniProt Q9UBU3 24-51, looked up) [human ghrelin]
in vitro half-life in rat serum: 0.5 h | in vitro half-life in human serum [1]: 4 h
